For one test, the system named is CMKLR1. The arrangement: method as in 4 sources, one per row (each row's own in cited_ref): ref [28] = [28]; PMID 25437209; doi:10.1371/journal.pone.0112925; 28 Graham K. L. A novel CMKLR1 small molecule antagonist suppresses CNS autoimmune inflammatory disease. PLoS One 9 , e112925 , doi: 10.1371/journal.pone.0112925 ( 2014 ). 25437209 PMC4249827 ||| ref [9] = [9]; PMID 25548799; doi:10.1007/s00011-014-0792-7; 9 Mariani F. & Roncucci L. Chemerin/chemR23 axis in inflammation onset and resolution. Inflamm Res 64 , 85 – 95 , doi: 10.1007/s00011-014-0792-7 ( 2015 ). 25548799 ||| ref [25]–[27] = [25]; PMID 17339491; doi:10.4049/jimmunol.178.6.3912; 25 Arita M. Resolvin E1 selectively interacts with leukotriene B4 receptor BLT1 and ChemR23 to regulate inflammation. J Immunol 178 , 3912 – 3917 , doi: 10.4049/jimmunol.178.6.3912 ( 2007 ). 17339491 || [26]; PMID 19906641; doi:10.1074/jbc.M109.044131; 26 Ohira T. Resolvin E1 receptor activation signals phosphorylation and phagocytosis. J Biol Chem 285 , 3451 – 3461 , doi: 10.1074/jbc.M109.044131 ( 2010 ). 19906641 PMC2823415 || [27]; PMID 25637017; doi:10.4049/jimmunol.1402166; 27 Herova M. , Schmid M. , Gemperle C. & Hersberger M. ChemR23, the receptor for chemerin and resolvin E1, is expressed and functional on M1 but not on M2 macrophages. J Immunol 194 , 2330 – 2337 , do ||| ref [2]–[5] = [2]; PMID 17635925; doi:10.1074/jbc.M700793200; 2 Goralski K. B. Chemerin, a novel adipokine that regulates adipogenesis and adipocyte metabolism. J Biol Chem 282 , 28175 – 28188 , doi: 10.1074/jbc.M700793200 ( 2007 ). 17635925 || [3]; PMID 17767914; doi:10.1016/j.bbrc.2007.08.104; 3 Roh S. G. Chemerin--a new adipokine that modulates adipogenesis via its own receptor. Biochem Biophys Res Commun 362 , 1013 – 1018 , doi: 10.1016/j.bbrc.2007.08.104 ( 2007 ). 17767914 || [4]; PMID 29848608; doi:10.1530/JOE-18-0174; 4 Helfer G. & Wu Q. F. Chemerin: a multifaceted adipokine involved in metabolic disorders. J Endocrinol 238 , R79 – R94 , doi: 10.1530/JOE-18-0174 ( 2018 ). 29848608 PMC6026924 || [5]; PMID 29279348; doi:10.1124/pr.116.013177; 5 Kennedy A. J. & Davenport A. P. International Union of Basic and Clinical Pharmacology CIII: Chemerin Receptors CMKLR1 (Chemerin(1)) and GPR1 (Chemerin(2)) Nomenclature, Pharmacology, and Function. The conditions noted are these: cited from earlier work. The text has this: Other isoforms of chemerin due to cleavage at different sites of the C-terminal region have also been detected in vivo with ... || The apparent contradictory functional roles of CMKLR1 in inflammation may be associated with the spatiotemporal regulation of the inflammation processes in cells. It is possible that in the early stage of inflammation the CMKLR1 signaling is mainly pro-inflammatory by promoting chemotaxis and activation of DCs and macrophages; whereas at the late stage of inflammation CMKLR1 activation can induce pro-resolving pathways to dampen inflammation.

Test [1] deals with primary human macrophages. The test is described as follows: Macrophage differentiation assay, cell surface marker expression by flow cytometry. The class given is cell-based. The text has this:
HLA-DR is a class II major histocompatibility complex cell surface molecule, a signature cell marker for antigen presenting cells (APCs), while CD86 is a selective ligand for the costimulatory molecule CD28, the activation of which is indispensable for optimal T cell prime and activation; together, HLA-DR and CD86 are signature cell surface markers for the canonical M1-like macrophages. On the other hand, CD206, the mannose receptor (MMR), is a glycosylated surface protein belonging to the scavenger receptor family. Similarly, CD163, another member of the scavenger receptor family, is the receptor for hemoglobin-haptoglobin complex. The upregulation of CD206 and CD163 in macrophages has been associated with the anti-inflammatory and tissue-repair phenotype,[33].
To generate human peripheral blood-derived macrophages, buffy coat was isolated from leukapheresis cones by Ficoll-Paque centrifugation. Monocytes were enriched from human PBMC by CD14 beads positive selection (Miltenyi Biotec) and cultured in IMDM supplanted with 10% human AB serum (omega scientific, Cat# HS-20) for 7 days for them to differentiate to macrophages.
Differentiated macrophages were then replated to low-bind plate at 0.15 million cells per 24-well plate, in 500 µl medium overnight before stimulated with various condition. […] Data were acquired on Cytek Aurora flowcytometry, analysis on Flowjo. MFI quantifications were normalized to M0 condition, and statistically analyzed by 2-way ANOVA, with Dunnett’s multiple comparisons test, all groups were pair-analyzed with M0 group as reference.
(In general: In flow cytometry, cells or beads pass a laser one at a time.)

For test [2], the target named is T1, wild type human CMKLR1 with the N-terminal 28-amino acid segment of human β2-adrenergic receptor fused to its … (Homo sapiens (Human), UniProt P07550).
T1 chain: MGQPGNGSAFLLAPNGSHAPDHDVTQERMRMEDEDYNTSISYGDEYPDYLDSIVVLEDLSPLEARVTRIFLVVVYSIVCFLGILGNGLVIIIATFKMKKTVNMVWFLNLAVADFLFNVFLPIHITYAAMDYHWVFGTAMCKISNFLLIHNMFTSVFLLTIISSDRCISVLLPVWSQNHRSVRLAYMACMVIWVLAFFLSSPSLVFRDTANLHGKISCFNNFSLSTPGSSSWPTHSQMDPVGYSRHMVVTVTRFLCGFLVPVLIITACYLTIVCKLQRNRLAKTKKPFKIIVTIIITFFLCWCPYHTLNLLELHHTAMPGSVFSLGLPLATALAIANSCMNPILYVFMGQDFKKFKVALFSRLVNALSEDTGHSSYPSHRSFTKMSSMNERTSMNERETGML
As to the kind of experiment: cryo-EM structure of co-purified complex; chemerin9 agonist, Gβ1γ2, scFv16 and apyrase (nucleotide-free); Gαi1 carries dominant negative mutations S47N/G203A/E245A/A326S.

[3] abbreviates: MFI fold-change normalized to M0, chemerin9 10 ng/mL 72 hours, IFNg 10 ng/ml plus LPS 10 ng/ml, IL-10 10 ng/ml, n=4 donors, Fig. 1a.

`C[N+](C)(C)CCC(=O)c1cccc2ccccc12.[I-]` [α-NETA]: the “potency against CMKLR1 (antagonist)” value in the test with CMKLR1 (small-molecule antagonist, ref [28]) is “low micromolar potency”.

Take `CC[C@@H](O)/C=C/C=C\C[C@@H](O)/C=C/C=C/C=C\[C@@H](O)CCCC(=O)O` [RvE1, resolvin E1]: the “action on CMKLR1 (in words)” value in the test with CMKLR1 (ref [25]–[27]) is on record as “suggested to act on CMKLR1 to promote the resolution of inflammation”.

As for “chemerin15: synthetic peptide corresponding to the 141–155 amino acid segment of chemerin (AGEDPHSFYFPGQFA; UniProt Q99969 141-155, looked up, fragment)”, the “CMKLR1 agonism / anti-inflammatory effect (in words)” value in the test on CMKLR1 (synthetic peptides, ref [9]) is “stable agonists of CMKLR1 that induce anti-inflammatory effects”.

B1: IL-10: reference signal molecule to induce the M2-like macrophages (protein, UniProt P22301 19-178, looked up)
Interleukin-10: SPGQGTQSENSCTHFPGNLPNMLRDLRDAFSRVKTFFQMKDQLDNLLLKESLLEDFKGYLGCQALSEMIQFYLEEVMPQAENQDPDIKAHVNSLGENLKTLRLRLRRCHRFLPCENKSKAVEQVKNAFNKLQEKGIYKAMSEFDIFINYIEAYMTMKIRN
As to B1, the “statistical significance of marker changes” value in test [1] (2-way ANOVA with Dunnett's multiple comparisons vs M0, n=4) was “statistically insignificant”. In test [1] (setting [3]), the “CD86 expression (in words)” value is given as “downregulation”, the “CD163 expression (in words)” value is recorded as “upregulation” and the “CD206 expression (in words)” value is given as “upregulation”. Also, the “macrophage phenotype (in words)” value in test [1] (overall, chemerin9 10 ng/mL, 72 hours) is given as “consistent with an anti-inflammatory phenotype”.

B2: dominant negative form of human Gαi1 (DNGαi1) (protein)
chain: GCTLSAEDKAAVERSKMIDRNLREDGEKAAREVKLLLLGAGESGKNTIVKQMKIIHEAGYSEEECKQYKAVVYSNTIQSIIAIIRAMGRLKIDFGDSARADDARQLFVLAGAAEEGFMTAELAGVIKRLWKDSGVQACFNRSREYQLNDSAAYYLNDLDRIAQPNYIPTQQDVLRTRVKTTGIVETHFTFKDLHFKMFDVGAQRSERKKWIHCFEGVTAIIFCVALSDYDLVLAEDEEMNRMHASMKLFDSICNNKWFTDTSIILFLNKKDLFEEKIKKSPLTICYPEYAGSNTYEEAAAYIQCQFEDLNKRKDTKEIYTHFTCSTDTKNVQFVFDAVTDVIIKNNLKDCGLF
Take B2: in test [2], the binding result is “binds”.

The values are drawn from doi:10.1101/2023.06.09.544295 (bioRxiv, 2023).
